Holding throughout (experiment): cell-based or functional assay
In one assay the target is T1, ADAMTS4 (human, UniProt O75173 213-685, limits assumed).
T1 sequence (looked up): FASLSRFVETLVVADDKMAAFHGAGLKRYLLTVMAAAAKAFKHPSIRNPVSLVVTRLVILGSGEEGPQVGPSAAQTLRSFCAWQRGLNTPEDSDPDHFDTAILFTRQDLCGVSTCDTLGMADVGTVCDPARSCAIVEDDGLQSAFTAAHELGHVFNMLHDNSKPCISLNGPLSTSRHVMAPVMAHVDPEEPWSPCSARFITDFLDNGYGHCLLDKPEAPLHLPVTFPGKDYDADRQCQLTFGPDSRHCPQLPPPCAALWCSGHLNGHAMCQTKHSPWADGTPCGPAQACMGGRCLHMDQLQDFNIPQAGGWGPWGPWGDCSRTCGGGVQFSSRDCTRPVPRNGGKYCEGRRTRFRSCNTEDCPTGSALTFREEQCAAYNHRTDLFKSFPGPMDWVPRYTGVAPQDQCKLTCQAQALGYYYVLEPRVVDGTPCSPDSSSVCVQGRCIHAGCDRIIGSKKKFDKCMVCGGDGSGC

For another assay, the target named is T2, ADAMTS5 (human, UniProt Q9UNA0 262-622, limits assumed).
T2 sequence (looked up): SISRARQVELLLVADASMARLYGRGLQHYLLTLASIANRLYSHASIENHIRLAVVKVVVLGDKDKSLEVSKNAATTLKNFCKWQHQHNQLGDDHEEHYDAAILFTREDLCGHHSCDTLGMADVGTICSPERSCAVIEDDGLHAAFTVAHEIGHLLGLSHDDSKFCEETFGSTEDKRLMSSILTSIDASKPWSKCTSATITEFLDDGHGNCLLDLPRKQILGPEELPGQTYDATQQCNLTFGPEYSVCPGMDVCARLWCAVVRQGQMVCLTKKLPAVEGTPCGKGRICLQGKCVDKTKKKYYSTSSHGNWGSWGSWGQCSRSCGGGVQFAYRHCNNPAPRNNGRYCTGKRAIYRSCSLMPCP

Another assay addresses MMP13 (human, UniProt P45452 104-471, limits assumed).

Residue numbers refer to the chain shown, from its start. Names and notes keep the numbering of the source.

B1: Variant A2M, bait region SEQ ID NO 88 (other)
chain: SVSGKPQYMVLVPSLLHTETTEKGCVLLSYLNETVTVSASLESVRGNRSLFTDLEAENDVLHCVAFAVPKSSSNEEVMFLTVQVKGPTQEFKKRTTVMVKNEDSLVFVQTDKSIYKPGQTVKFRVVSMDENFHPLNELIPLVYIQDPKGNRIAQWQSFQLEGGLKQFSFPLSSEPFQGSYKVVVQKKSGGRTEHPFTVEEFVLPKFEVQVTVPKIITILEEEMNVSVCGLYTYGKPVPGHVTVSICRKYSDASDCHGEDSQAFCEKFSGQLNSHGCFYQQVKTKVFQLKRKEYEMKLHTEAQIQEEGTVVELTGRQSSEITRTITKLSFVKVDSHFRQGIPFFGQVRLVDGKGVPIPNKVIFIRGNEANYYSNATTDEHGLVQFSINTTNVMGTSLTVRVNYKDRSPCYGYQWVSEEHEEAHHTAYLVFSPSKSFVHLEPMSHELPCGHTQTVQAHYILNGGTLLGLKKLSFYYLIMAKGGIVRTGTHGLLVKQEDMKGHFSISIPVKSDIAPVARLLIYAVLPTGDVIGDSAKYDVENCLANKVDLSFSPSQSLPASHAHLRVTAAPQSVCALRAVDQSVLLMKPDAELSASSVYNLLPEKDLTGFPGPLNDQDDEDCINRHNVYINGITYTPVSSTNEKDMYSFLEDMGLKAFTNSKIRKPKMCPQLEQYEMHGPEGLRVGIPENFFGVFYESDVMGRGHARLVHVEEPHTKLLRKYFPETWIWDLVVVNSAGVAEVGVTVPDTITEWKAGAFCLSEDAGLGISSTASLRAFQPFFVELTMPYSVIRGEAFTLKATVLNYLPKCIRVSVQLEASPAFLAVPVEKEQAPHCICANGRQTVSWAVTPKSLGNVNFTVSAEALESQELCGTEVPSVPEHGRKDTVIKPLLVEPEGLEKETTFNSLLCPSGGEVSEELSLKLPPNVVEESARASVSVLGDILGSAMQNTQNLLQMPYGCGEQNMVLFAPNIYVLDYLNETQQLTPEIKSKAIGYLNTGYQRQLNYKHYDGSYSTFGERYGRNQGNTWLTAFVLKTFAQARAYIFIDEAHITQALIWLSQRQKDNGCFRSSGSLLNNAIKGGVEDEVTLSAYITIALLEIPLTVTHPVVRNALFCLESAWKTAQEGDHGSHVYTKALLAYAFALAGNQDKRKEVLKSLNEEAVKKDNSVHWERPQKPKAPVGHFYEPQAPSAEVEMTSYVLLAYLTAQPAPTSEDLTSATNIVKWITKQQNAQGGFSSTQDTVVALHALSKYGAATFTRTGKAAQVTIQSSGTFSSKFQVDNNNRLLLQQVSLPELPGEYSMKVTGEGCVYLQTSLKYNILPEKEEFPFALGVQTLPQTCDEPKAHTSFQISLSVSYTGSRSASNMAIVDVKMVSGFIPLKPTVKMLERSNHVSRTEVSSNHVLIYLDKVSNQTLSLFFTVLQDVPVRDLKPAIVKVYDYYETDEFAIAEYNAPCSKDLGNADYKDDDDKGASHHHHHH
B1: the “Protease Inhibition (% of WT)” value with ADAMTS4 was 68 % of WT; in the assay with ADAMTS5 it was 108 % of WT; with MMP13 it was 156 % of WT.

B2: Variant A2M, bait region SEQ ID NO 97 (other)
chain: B1 chain with I684G, P685E, N687G, F688V, F689E, G690E, V691G
On to B2, for which the “Protease Inhibition (% of WT)” value in the assay with ADAMTS4 is 131 % of WT; with ADAMTS5, 128 % of WT; in the assay with MMP13 it was 116 % of WT.

B3: Variant A2M, bait region SEQ ID NO 95 (other)
chain: B1 chain with I684T, P685S, N687D, F688L, F689V, G690V, V691Q
For B3, the “Protease Inhibition (% of WT)” value was 153 % of WT with ADAMTS4, 272 % of WT in the assay with ADAMTS5 and 79 % of WT with MMP13.

B4: Variant A2M, bait region SEQ ID NO 94 (other)
chain: B1 chain with I684T, P685E, E686G, N687E, F688A, F689R, V691S
With B4, the “Protease Inhibition (% of WT)” value in the assay with ADAMTS4 was 121 % of WT; with ADAMTS5, 395 % of WT; with MMP13, 173 % of WT.

B5: Variant A2M, bait region SEQ ID NO 89 (other)
chain: B1 chain with I684K, P685E, N687E, F688G, F689L, V691S
Take B5: the “Protease Inhibition (% of WT)” value in the assay with ADAMTS4 was 101 % of WT; in the assay with ADAMTS5, 485 % of WT; in the assay with MMP13 it was 1 % of WT.

B6: Variant A2M, bait region SEQ ID NO 93 (other)
chain: B1 chain with I684V, P685S, E686Q, N687E, F688L, F689G, G690Q, V691R
Regarding B6, the “Protease Inhibition (% of WT)” value with ADAMTS4 is 27 % of WT; with ADAMTS5, 66 % of WT; with MMP13, 119 % of WT.

B7: Variant A2M, bait region SEQ ID NO 85 (other)
chain: SVSGKPQYMVLVPSLLHTETTEKGCVLLSYLNETVTVSASLESVRGNRSLFTDLEAENDVLHCVAFAVPKSSSNEEVMFLTVQVKGPTQEFKKRTTVMVKNEDSLVFVQTDKSIYKPGQTVKFRVVSMDENFHPLNELIPLVYIQDPKGNRIAQWQSFQLEGGLKQFSFPLSSEPFQGSYKVVVQKKSGGRTEHPFTVEEFVLPKFEVQVTVPKIITILEEEMNVSVCGLYTYGKPVPGHVTVSICRKYSDASDCHGEDSQAFCEKFSGQLNSHGCFYQQVKTKVFQLKRKEYEMKLHTEAQIQEEGTVVELTGRQSSEITRTITKLSFVKVDSHFRQGIPFFGQVRLVDGKGVPIPNKVIFIRGNEANYYSNATTDEHGLVQFSINTTNVMGTSLTVRVNYKDRSPCYGYQWVSEEHEEAHHTAYLVFSPSKSFVHLEPMSHELPCGHTQTVQAHYILNGGTLLGLKKLSFYYLIMAKGGIVRTGTHGLLVKQEDMKGHFSISIPVKSDIAPVARLLIYAVLPTGDVIGDSAKYDVENCLANKVDLSFSPSQSLPASHAHLRVTAAPQSVCALRAVDQSVLLMKPDAELSASSVYNLLPEKDLTGFPGPLNDQDDEDCINRHNVYINGITYTPVSSTNEKDMYSFLEDMGLKAFTNSKIRKPKMCPQLEQYEMHGPEGLRVGIPENFFGVSELEGRGSKEEEGLGSKLRKYFPETWIWDLVVVNSAGVAEVGVTVPDTITEWKAGAFCLSEDAGLGISSTASLRAFQPFFVELTMPYSVIRGEAFTLKATVLNYLPKCIRVSVQLEASPAFLAVPVEKEQAPHCICANGRQTVSWAVTPKSLGNVNFTVSAEALESQELCGTEVPSVPEHGRKDTVIKPLLVEPEGLEKETTFNSLLCPSGGEVSEELSLKLPPNVVEESARASVSVLGDILGSAMQNTQNLLQMPYGCGEQNMVLFAPNIYVLDYLNETQQLTPEIKSKAIGYLNTGYQRQLNYKHYDGSYSTFGERYGRNQGNTWLTAFVLKTFAQARAYIFIDEAHITQALIWLSQRQKDNGCFRSSGSLLNNAIKGGVEDEVTLSAYITIALLEIPLTVTHPVVRNALFCLESAWKTAQEGDHGSHVYTKALLAYAFALAGNQDKRKEVLKSLNEEAVKKDNSVHWERPQKPKAPVGHFYEPQAPSAEVEMTSYVLLAYLTAQPAPTSEDLTSATNIVKWITKQQNAQGGFSSTQDTVVALHALSKYGAATFTRTGKAAQVTIQSSGTFSSKFQVDNNNRLLLQQVSLPELPGEYSMKVTGEGCVYLQTSLKYNILPEKEEFPFALGVQTLPQTCDEPKAHTSFQISLSVSYTGSRSASNMAIVDVKMVSGFIPLKPTVKMLERSNHVSRTEVSSNHVLIYLDKVSNQTLSLFFTVLQDVPVRDLKPAIVKVYDYYETDEFAIAEYNAPCSKDLGNADYKDDDDKGASHHHHHH
Turning to B7, the entries for the “Protease Inhibition (% of WT)” value with ADAMTS4, in the assay with ADAMTS5 and with MMP13 were 78 % of WT, 174 % of WT and 170 % of WT, respectively.

B8: Variant A2M, bait region SEQ ID NO 86 (other)
chain: SVSGKPQYMVLVPSLLHTETTEKGCVLLSYLNETVTVSASLESVRGNRSLFTDLEAENDVLHCVAFAVPKSSSNEEVMFLTVQVKGPTQEFKKRTTVMVKNEDSLVFVQTDKSIYKPGQTVKFRVVSMDENFHPLNELIPLVYIQDPKGNRIAQWQSFQLEGGLKQFSFPLSSEPFQGSYKVVVQKKSGGRTEHPFTVEEFVLPKFEVQVTVPKIITILEEEMNVSVCGLYTYGKPVPGHVTVSICRKYSDASDCHGEDSQAFCEKFSGQLNSHGCFYQQVKTKVFQLKRKEYEMKLHTEAQIQEEGTVVELTGRQSSEITRTITKLSFVKVDSHFRQGIPFFGQVRLVDGKGVPIPNKVIFIRGNEANYYSNATTDEHGLVQFSINTTNVMGTSLTVRVNYKDRSPCYGYQWVSEEHEEAHHTAYLVFSPSKSFVHLEPMSHELPCGHTQTVQAHYILNGGTLLGLKKLSFYYLIMAKGGIVRTGTHGLLVKQEDMKGHFSISIPVKSDIAPVARLLIYAVLPTGDVIGDSAKYDVENCLANKVDLSFSPSQSLPASHAHLRVTAAPQSVCALRAVDQSVLLMKPDAELSASSVYNLLPEKDLTGFPGPLNDQDDEDCINRHNVYINGITYTPVSSTNEKDMYSFLEDMGLKAFTNSKIRKPKMCPQLEQYEMHGPEGLRVGSELEGRGSKEEEGLGSIPENFFGVKLRKYFPETWIWDLVVVNSAGVAEVGVTVPDTITEWKAGAFCLSEDAGLGISSTASLRAFQPFFVELTMPYSVIRGEAFTLKATVLNYLPKCIRVSVQLEASPAFLAVPVEKEQAPHCICANGRQTVSWAVTPKSLGNVNFTVSAEALESQELCGTEVPSVPEHGRKDTVIKPLLVEPEGLEKETTFNSLLCPSGGEVSEELSLKLPPNVVEESARASVSVLGDILGSAMQNTQNLLQMPYGCGEQNMVLFAPNIYVLDYLNETQQLTPEIKSKAIGYLNTGYQRQLNYKHYDGSYSTFGERYGRNQGNTWLTAFVLKTFAQARAYIFIDEAHITQALIWLSQRQKDNGCFRSSGSLLNNAIKGGVEDEVTLSAYITIALLEIPLTVTHPVVRNALFCLESAWKTAQEGDHGSHVYTKALLAYAFALAGNQDKRKEVLKSLNEEAVKKDNSVHWERPQKPKAPVGHFYEPQAPSAEVEMTSYVLLAYLTAQPAPTSEDLTSATNIVKWITKQQNAQGGFSSTQDTVVALHALSKYGAATFTRTGKAAQVTIQSSGTFSSKFQVDNNNRLLLQQVSLPELPGEYSMKVTGEGCVYLQTSLKYNILPEKEEFPFALGVQTLPQTCDEPKAHTSFQISLSVSYTGSRSASNMAIVDVKMVSGFIPLKPTVKMLERSNHVSRTEVSSNHVLIYLDKVSNQTLSLFFTVLQDVPVRDLKPAIVKVYDYYETDEFAIAEYNAPCSKDLGNADYKDDDDKGASHHHHHH
Take B8: the “Protease Inhibition (% of WT)” value was 91 % of WT in the assay with ADAMTS4, 74 % of WT in the assay with ADAMTS5 and 120 % of WT in the assay with MMP13.

The values above are taken from patent US20230250154A1 (CYTONICS, published 2023).
